Measured values taken from patent publication US7332473B2, “Peptides and medicinal compositions containing the same” (priority 2002, dated 2008).
Square brackets hold non-standard residues; d marks the D form. Ends that are not written are not given here. Met(O) = CS(=O)CC[C@H](N)C(=O)O

Assays:
[1] = Helical content from circular dichroism spectra; type: physicochemical; conditions: 20 mM Tris-HCl buffer (pH 7.4), calculation by Greenfield et al.
Method: VIP (peptide 1, SEQ ID NO: 2), peptide 7 (SEQ ID NO: 8) corresponding to 25 residues at the N-terminus of VIP, and peptide 8 (SEQ ID NO: 9), which is a peptide 7 derivative with its methionine-17 being oxidized, were dissolved in a 20 mM Tris-HCl buffer (pH 7.4), and the circular dichroism spectra thereof were examined using the Jasco J-720 (Jasco Corporation). According to analytical calculation of higher-order structure by Greenfield et al., the helical content of peptide 1 was about 50% (FIG. 2).

[2] = tested on: murine gastric smooth muscles; assay: Inhibition of carbachol-induced constriction of murine gastric smooth muscle (Magnus apparatus); parameters: species or system ICR mice; conditions: final concentration 10^−6 M, peptide 1 = 100%

For “His-Ser-Asp-Ala-Val-Phe-Thr-Asp-Asn-Tyr-Thr-Arg-Leu-Arg-Lys-Gln-Met(O)-Ala-Val-Lys-Lys-Tyr-Leu-Asn-Ser-NH2 (HSDAVFTDNYTRLRKQ[Met(O)]AVKKYLNS-NH2; N-terminus assumed; SMILES CC(C)C[C@H](NC(=O)[C@H](Cc1ccc(O)cc1)NC(=O)[C@H](CCCCN)NC(=O)[C@H](CCCCN)NC(=O)[C@@H](NC(=O)[C@H](C)NC(=O)[C@H](CCS(C)=O)NC(=O)[C@H](CCC(N)=O)NC(=O)[C@H](CCCCN)NC(=O)[C@H](CCCNC(=N)N)NC(=O)[C@H](CC(C)C)NC(=O)[C@H](CCCNC(=N)N)NC(=O)[C@@H](NC(=O)[C@H](Cc1ccc(O)cc1)NC(=O)[C@H](CC(N)=O)NC(=O)[C@H](CC(=O)O)NC(=O)[C@@H](NC(=O)[C@H](Cc1ccccc1)NC(=O)[C@@H](NC(=O)[C@H](C)NC(=O)[C@H](CC(=O)O)NC(=O)[C@H](CO)NC(=O)[C@@H](N)Cc1c[nH]cn1)C(C)C)[C@@H](C)O)[C@@H](C)O)C(C)C)C(=O)N[C@@H](CC(N)=O)C(=O)N[C@@H](CO)C(N)=O) [Peptide 8]”, the helical content [1] was “reduced to about half that of peptide 1” and the “maximal inhibition of murine gastric smooth muscle constriction (activity, in words)” value [2] was “significantly attenuated compared to that of peptide 7”.
